This passage reports EC50 (read off the curve) results from patent US20180134765A1.

This test deals with human NKG2D (Example 6 binding ELISA) (human) (UniProt P26718). The experiment in a line: binding ELISA of the HER2 antibody heavy chain fusion on human NKG2D. (ELISA stands for enzyme-linked immunosorbent assay.)
human NKG2D (Example 6 binding ELISA) (human), sequence (P26718 78-216 limits assumed): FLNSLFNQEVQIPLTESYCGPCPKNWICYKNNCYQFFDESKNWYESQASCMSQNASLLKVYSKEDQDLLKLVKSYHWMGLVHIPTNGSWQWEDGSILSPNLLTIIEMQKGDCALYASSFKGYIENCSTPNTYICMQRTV

B1: Her2-specific antibody heavy chain fusion to ULBP3 α1-α2 variant R162G (antibody, part only; not given: Anti-HER2 heavy and light chains, not shown: another chain or arm of the molecule; small tags and cut ends)
chain: AAEPHSLWYNFTIIHLPRHGQQWCEVQSQVDQKNFLSYDCGSDKVLSMGHLEEQLYATDAWGKQLEMLREVGQRLRLELADTELEDFTPSGPLTLQVRMSCESEADGYIRGSWQFSFDGRKFLLFDSNNRKWTVVHAGARRMKEKWEKDSGLTTFFKMVSMGDCKSWLRDFLMHRKKRLEPTAP
The molecule B1 registered an EC50 (read off the curve) of 0.4 nM.

B2: Her2-specific antibody heavy chain fusion to ULBP2 α1-α2 variant R80W (antibody, part only; not given: Anti-HER2 heavy and light chains, not shown: another chain or arm of the molecule; small tags and cut ends)
chain: AAEPHSLSYDITVIPKFRPGPRWCAVQGQVDEKTFLHYDCGNKTVTPVSPLGKKLNVTTAWKAQNPVLREVVDILTEQLWDIQLENYTPKEPLTLQARMSCEQKAEGHSSGSWQFSFDGQIFLLFDSEKRMWTTVHPGARKMKEKWENDKVVAMSFHYFSMGDCIGWLEDFLMGMDSTLEPSAGAP
Take B2: the EC50 (read off the curve) was 1 to 2 nM.

As a reminder, the EC50 (read off the curve) is the midpoint of the concentration-response curve. A low value points to greater potency.
